In data set [1] the target is T1, mesothelin protein (Homo sapiens, UniProt Q13421). In words: Affinity measurements and kinetic analysis using BIAcore (SPR), mesothelin immobilised. In kind it is binding. How it is done: To know the biding kinetics difference among individual antibodies, surface plasmon resonance (SPR) measurement with a BIAcore T200 (Cytiva Inc.) was used as previously described (Karlsson & Falt, (1997) J. Immunol Methods 200:121-133). Carboxymethylated dextran biosensor chips (CM5, Cytiva Inc.) were activated with N-ethyl-N′-(3-dimethylaminopropyl)-carbodiimide hydrochloride (EDC) and N-hydroxysuccinimide (NHS) according to the supplier's instructions. Mesothelin protein was diluted with 10 mM sodium acetate, pH 4.0, into 5 μg/ml before injection at a flow rate of 10 μL/minute to achieve approximately 1500 response units (RU) of coupled protein followed by the injection of 1M ethanolamine to block unreacted groups. For kinetics measurements, two-fold serial dilutions of anti-mesothelin mAb (0.3125 nM to 40 nM) were injected in HBS-EP+ Biacore running buffer provided by the manufacturer (Cytiva Inc.) at 25 degree C. at a flow rate of 30 μL/min, and binding responses on the mesothelin protein were corrected by subtraction of responses on a blank flow cell. Association rates (kon or ka) and dissociation rates (koff or kd) were calculated using a simple one-to-one Langmuir binding model with separate fittings of kon and koff was used. (Cytiva.™. Biacore Insight Evaluation Software).
T1 sequence (Q13421 with tags, fused parts or gaps): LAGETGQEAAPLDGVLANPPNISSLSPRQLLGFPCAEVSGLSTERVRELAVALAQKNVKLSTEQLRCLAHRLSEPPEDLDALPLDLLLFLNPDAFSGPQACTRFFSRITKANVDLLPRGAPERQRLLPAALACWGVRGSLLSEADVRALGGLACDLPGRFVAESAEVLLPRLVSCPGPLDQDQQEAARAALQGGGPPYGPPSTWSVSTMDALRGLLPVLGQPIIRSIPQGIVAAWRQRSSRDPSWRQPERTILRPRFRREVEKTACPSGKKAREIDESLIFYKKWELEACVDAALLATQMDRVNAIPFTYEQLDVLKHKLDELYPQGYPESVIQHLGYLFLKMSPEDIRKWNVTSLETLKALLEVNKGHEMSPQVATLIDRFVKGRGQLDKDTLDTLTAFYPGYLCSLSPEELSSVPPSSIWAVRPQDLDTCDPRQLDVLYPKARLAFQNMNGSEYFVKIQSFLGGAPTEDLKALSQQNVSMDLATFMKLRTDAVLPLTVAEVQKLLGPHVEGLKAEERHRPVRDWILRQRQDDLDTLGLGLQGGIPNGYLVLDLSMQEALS

The target of data set [2] is T1, mesothelin protein. In words: Binding kinetics of anti-mesothelin ADCs by surface plasma resonance (Biacore T100). The following applies: analyte MSLN. As to the method:
The kinetic constant of the anti-mesothelin ADCs interaction against mesothelin was determined by surface plasma resonance (Biacore® T100, Biacore, Inc., Piscataway, NJ). The flow cell of the CM5 wafer was fixed with approximately 10,000 reaction units (RU) of anti-human IgG-Fc (Biacore®) in 10 mM glycine pH 5.0 at 10 μL/min for 600 seconds. 10 μg/mL of anti-mesothelin antibody and anti-mesothelin ADCs diluted in TBS at 10 μl/min were captured on CM5 chips. Four concentrations (from 3.7 to 100 nM) of human mesothelin recombinant protein and zero concentration (flow buffer) in 100 μl/min binding were recorded in PBS containing 1 mM CaCl2 for 3 minutes. The dissociation of the complex was measured for 10 minutes. The water surface was regenerated by injecting 3 M MgCl2 and 3 mM EGTA at 10 μl/min for 60 seconds. The curve obtained after subtracting the reference and buffer signals was taken into the 1:1 Langmuir binding model using the Biacore® T100 evaluation software (Biacore®).

Data set [3] deals with KLM-1 human pancreatic cancer xenograft. The data set is described as follows: KLM-1 xenograft model (Example 44). In kind it is in vivo. To be noted: 30 mg/kg IV once weekly for 3 weeks. How it is done: Each of the formulations was administered intravenously (IV) to the mice once weekly for three weeks.
Five mice were housed in each cage.
When the average tumor volume had reached 200 mm^3, the mice were randomLy divided into 4 groups (N=6 per group). Each of the vehicle, DCBPR2002-4(DBCO-vc-MMAE) (15 and 30 mg/kg), and naked antibody (DCBPR2002, 30 mg/kg) was intravenously administered once weekly for 3 weeks.
Differences are considered significant at *P<0.05.

B1: DCBPR2002: humanized anti-mesothelin antibody, heavy chain variable region SEQ ID NO: 11, light chain variable region SEQ ID NO: 12 (antibody, V domains shown)
VH: QVQLVQSGAEVKKPGASVKVSCKASGYSFTGYTMNWVRQAPGQGLEWMGLITPYNGASSYNQKFRGRVTMTRDTSISTAYMELSRLRSDDTAVYYCARGGYDGRGFDYWGQGTLVTVSS
VL: EIVLTQSPATLSLSPGERATLSCSASSSVSYMHWYQQKPGQAPRLLIYDTSKLASGIPARFSGSGSGTDFTLTISSLEPEDFAVYYCQQWSKHPLTFGQGTKVEIKR
modifications: Artificial antibody
With B1, the “Rmax(RU)” value stood at 180.6 RU in the data set with mesothelin protein [1] (BIAcore T200) and 58.1 RU in the data set with mesothelin protein [2]. In addition, the “ka” value with mesothelin protein [1] (BIAcore T200, 25 degree C, 1:1 Langmuir model) was 4.493e+06 M⁻¹ s⁻¹. Further, the “kd” value in the data set with mesothelin protein [1] (BIAcore T200, 25 degree C, 1:1 Langmuir model, listed as HuSS1) worked out at 1.124e-05 s⁻¹; with mesothelin protein [1] (BIAcore T200, 25 degree C, 1:1 Langmuir model, listed as HuSS1mAb), 1.124e-05 s⁻¹. The molecule also came in with a Ka with mesothelin protein [2] (antibody/ADC captured on CM5 chip via anti-human IgG-Fc) of 5.091E+6. Further, the “dissociation rate constant (koff)” value in the data set with mesothelin protein [2] (dissociation rate, antibody/ADC captured on CM5 chip) was 8.593E−5. Besides, the body weight changes result in data set [3] is “No body weight loss was observed”. Further, the “tumor growth / anti-tumor activity” value in data set [3] (TGI≥58% considered significant) is “did not show significant anti-tumor activity”.

The values above are taken from patent publication US11998613B2, “Antibody-drug conjugates containing an anti-mesothelin antibody and uses thereof” (DEVELOPMENT CENTER FOR BIOTECHNOLOGY, priority 2020, dated 2024).
